This is an account of results in US20230355711A1.

The target in the test is recombinant SARS-CoV-2 spike protein (S1S2ECD-His; Sino Biological) (SARS-CoV-2) (UniProt P0DTC2).

Regarding “heat-inactivated recombinant human rod domain of vimentin (ΔrhRod) (from UniProt P08670 96-407)”, the equilibrium dissociation constant (Kd) is 1100 nM.

A word on the Kd: it is the constant that tells how readily two partners part at equilibrium.
